These results are taken from IntAct's records for PubMed 24417819.

The labels stand for the following.
B1: Tetratricopeptide repeat protein 7A (Homo sapiens), Q9ULT0 (parent)
chain: MAAKGAHGSYLKVESELERCRAEGHWDRMPELVRQLQTLSMPGGGGNRRGSPSAAFTFPDTDDFGKLLLAEALLEQCLKENHAKIKDSMPLLEKNEPKMSEAKNYLSSILNHGRLSPQYMCEAMLILGKLHYVEGSYRDAISMYARAGIDDMSMENKPLYQMRLLSEAFVIKGLSLERLPNSIASRFRLTEREEEVITCFERASWIAQVFLQELEKTTNNSTSRHLKGCHPLDYELTYFLEAALQSAYVKNLKKGNIVKGMRELREVLRTVETKATQNFKVMAAKHLAGVLLHSLSEECYWSPLSHPLPEFMGKEESSFATQALRKPHLYEGDNLYCPKDNIEEALLLLLISESMATRDVVLSRVPEQEEDRTVSLQNAAAIYDLLSITLGRRGQYVMLSECLERAMKFAFGEFHLWYQVALSMVACGKSAYAVSLLRECVKLRPSDPTVPLMAAKVCIGSLRWLEEAEHFAMMVISLGEEAGEFLPKGYLALGLTYSLQATDATLKSKQDELHRKALQTLERAQQLAPSDPQVILYVSLQLALVRQISSAMEQLQEALKVRKDDAHALHLLALLFSAQKHHQHALDVVNMAITEHPENFNLMFTKVKLEQVLKGPEEALVTCRQVLRLWQTLYSFSQLGGLEKDGSFGEGLTMKKQSGMHLTLPDAHDADSGSRRASSIAASRLEEAMSELTMPSSVLKQGPMQLWTTLEQIWLQAAELFMEQQHLKEAGFCIQEAAGLFPTSHSVLYMRGRLAEVKGNLEEAKQLYKEALTVNPDGVRIMHSLGLMLSRLGHKSLAQKVLRDAVERQSTCHEAWQGLGEVLQAQGQNEAAVDCFLTALELEASSPVLPFSIIPREL

In this assay the parent is B1. The note with it: with PI4K2A.
As to A832T, the “effect of a mutation on the interaction” value is “decreasing interaction”.
The entry for E71K is “decreasing interaction”.
